Test results taken from article PMC11257983 (2024).

B1: Myc-MEK [Drosophila] / V5-KSR [Drosophila] (parent complex)
chain 1: MSKNKLNLVLPPVNTEATVAAATVAPTPPFKTPSGTDTHSLLGKPKTSIDALTETLEGLDMGDTERKRIKMFLSQKEKIGELSDEDLEKLGELGSGNGGVVMKVRHTHTHLIMARKLIHLEVKPAIKKQILRELKVLHECNFPHIVGFYGAFYSDGEISICMEYMDGGSLDLILKRAGRIPESILGRITLAVLKGLSYLRDNHAIIHRDVKPSNILVNSSGEIKICDFGVSGQLIDSMANSFVGTRSYMSPERLQGTHYSVQSDIWSLGLSLVEMAIGMYPIPPPNTATLESIFADNAEESGQPTDEPRAMAIFELLDYIVNEPPPKLEHKIFSTEFKDFVDICLKKQPDERADLKTLLSHPWIRKAELEEVDISGWVCKTMDLPPSTPKRNTSPN
chain 2: MSSNNNAPASAPDTGSTNANDPISGSLSVDSNLVIIQDMIDLSANHLEGLRTQCAISSTLTQQEIRCLESKLVRYFSELLLAKMRLNERIPANGLVPHTTGNELRQWLRVVGLSQGTLTACLARLTTLEQSLRLSDEEIRQLLADSPSQREEEELRRLTRAMQNLRKCMESLESGTAASNNDPEQWHWDSWDRPTHIHRGSVGNIGLGNNSTASPRTHHRQHGVKGKNSALANSTNFKSGRQSPSATEELNSTQGSQLTLTLTPSPPNSPFTPSSGLSSSLNGTPQRSRGTPPPARKHQTLLSQSHVQVDGEQLARNRLPTDPSPDSHSSTSSDIFVDPNTNASSGGSSSNVLMVPCSPGVGHVGMGHAIKHRFTKALGFMATCTLCQKQVFHRWMKCTDCKYICHKSCAPHVPPSCGLPREYVDEFRHIKEQGGYASLPHVHGAAKGSPLVKKSTLGKPLHQQHGDSSSPSSSCTSSTPSSPALFQQRERELDQAGSSSSANLLPTPSLGKHQPSQFNFPNVTVTSSGGSGGVSLISNEPVPEQFPTAPATANGGLDSLVSSSNGHMSSLIGSQTSNASTAATLTGSLVNSTTTTSTCSFFPRKLSTAGVDKRTPFTSEYTDTHKSNDSDKTVSLSGSASTDSDRTPVRVDSTEDGDSGQWRQNSISLKEWDIPYGDLLLLERIGQGRFGTVHRALWHGDVAVKLLNEDYLQDEHMLETFRSEVANFKNTRHENLVLFMGACMNPPYLAIVTSLCKGNTLYTYIHQRREKFAMNRTLLIAQQIAQGMGYLHAREIIHKDLRTKNIFIENGKVIITDFGLFSSTKLLYCDMGLGVPHNWLCYLAPELIRALQPEKPRGECLEFTPYSDVYSFGTVWYELICGEFTFKDQPAESIIWQVGRGMKQSLANLQSGRDVKDLLMLCWTYEKEHRPQFARLLSLLEHLPKKRLARSPSHPVNLSRSAESVF
B2: Flag-CNK^2–549 [Drosophila] / GST-HYP [Drosophila] (parent complex)
chain 1: AYINIAEWTPDQVTDWIKGLDESMKGYLYEFSKQEIGGRALLNIRPYELENLGMLRIGHQEIVLEAVENLRNFHYHLKNDNLQFMALHVATAAKNLHRELARNHAESTKIDTRILHDITRTIATLKPLVGSLERTPFRKQEMYREYCGNVLKCGLELATIAHRDRFALQPVPAIRQSAERLENLANFVIQDISDPMVLQPASLNLVTLKKRESELGFNIESSYNGIHRVTDIKYNSPAHNSGKIEDGDEIVQINYQTVVGWQHRTVLEHLREALPDVVLTVKKRPKHTKMFGQIYMQPYRLPSKKRNMAARWAAQMPSPRAAFLTLDTEQLATGGTGSAVPDPSKSLSSEKREVLTKANPVSSASDSDSSCSDIPTPTDPKLAAREIRLYYPKPRALLQRRNTICGCEYLSLKNSDLVVPSWHERKPGIGSPTNCDPGSPSIRDKSISFGYGLEMAARPTTCIGIAGDTSTDKARRMFHEARKLKQLTEDSQREFLVDRYKPGVSKVVRFDAKEDYVMKNEKFICNVENTILETFEPIPFADEGDEDA
chain 2: MGEETINSTQNKTRTKTTRPKAVYLWTVSDVLKWYRRHCGEYTQYEQLFAQHDITGRALLRITDSSLQRMGVTDNRDREAIWREIVKQRLKTDIMEIRDMERLNIY

Variants of: B1
Assay: anti-V5 immunoprecipitation, immunoblot quantification; S2 cells; V5-KSR and Myc-MEK co-expressed; anti-MEK blot; parent: 1

| ratio to parent | Variant |
| --- | --- |
| 0.15 | chain 2 W896R |
| 0.9 | chain 2 M902D |
| 1.24 | chain 2 Y925D |
| 1.51 | chain 2 E926R |
| 0.46 | chain 2 K903D |

Variants of: B1
Assay: anti-V5 immunoprecipitation, immunoblot quantification; S2 cells; V5-KSR and Myc-MEK co-expressed; anti-Myc (MEK) blot; parent: 1

| ratio to parent | Variant |
| --- | --- |
| 0.82 | chain 1 E323R |

Variants of: B1
Assay: as above
Remark: another data set of the same source

| ratio to parent | Variant |
| --- | --- |
| 1.31 | chain 2 R913E |

Variants of: B2
Assay: GST pull-down, immunoblot quantification; S2 cells; GST-HYP, V5-KSR, Myc-MEK co-expressed; anti-Flag (CNK) blot; parent: 1

| Variant | ratio to parent |
| --- | --- |
| chain 1 D194K, chain 1 V197E | 0.27 |
| chain 1 D194K | 0.24 |
| chain 1 M196E | 0.55 |

Now from value to variant:

| ratio to parent | Variant |
| --- | --- |
| 0.87 | chain 1 Q199A |
| 0.24 | chain 1 V197E |
| 0.94 | chain 1 S193A |

Variants of: B2
Assay: GST pull-down, immunoblot quantification; S2 cells; only Flag-CNK2–549 and GST-HYP co-expressed; anti-Flag (CNK) blot; parent: 1

| Variant | ratio to parent |
| --- | --- |
| chain 1 D194K, chain 1 V197E | 1.03 |
| chain 1 D194K | 0.76 |
| chain 1 M196E | 0.82 |

The next lines start with the values.

| ratio to parent | Variant |
| --- | --- |
| 0.83 | chain 1 Q199A |
| 0.77 | chain 1 V197E |
| 0.81 | chain 1 S193A |

Variants of: B2
Assay: GST pull-down, immunoblot quantification; S2 cells; only GST-HYP and Flag-CNK2–549 co-expressed; anti-Flag blot; parent: 1

| ratio to parent | Variant |
| --- | --- |
| 0.28 | chain 2 I97D |
| 0.25 | chain 2 L90D, chain 2 I97D |
| 0.24 | chain 2 L90D |

Variants of: B2
Assay: GST pull-down, immunoblot quantification; S2 cells; GST-HYP, Flag-CNK2–549 + RRKM co-expressed; anti-Flag (CNK) blot; parent: 1

| ratio to parent | Variant |
| --- | --- |
| 0.53 | chain 2 I97D |
| 0.15 | chain 2 L90D, chain 2 I97D |
| 0.24 | chain 2 L90D |

Variants of: B2
Assay: GST pull-down, immunoblot quantification; S2 cells; GST-HYP + RRKM co-expressed; anti-Flag (CNK) blot; parent: 1

| ratio to parent | Variant |
| --- | --- |
| 0.61 | chain 1 F73R, chain 1 V251R |
| 0.84 | chain 1 E249R |
| 0.94 | chain 1 F73R |
| 0.08 | chain 1 E249R, chain 1 V251R |
| 0.87 | chain 1 A66F |
| 0.22 | chain 1 F73R, chain 1 E249R |
| 0.68 | chain 1 V251R |
| 0.58 | chain 1 A66F, chain 1 F73R |

Variants of: B2
Assay: GST pull-down, immunoblot quantification; S2 cells; only Flag-CNK2–549 and GST-HYP co-expressed; anti-Flag blot; parent: 1

| ratio to parent | Variant |
| --- | --- |
| 0.04 | chain 1 F73R, chain 1 V251R |
| 0.75 | chain 1 E249R |
| 0.91 | chain 1 F73R |
| 0.05 | chain 1 E249R, chain 1 V251R |
| 0.29 | chain 1 A66F |
| 0.06 | chain 1 F73R, chain 1 E249R |
| 0.07 | chain 1 V251R |
| 0.12 | chain 1 A66F, chain 1 F73R |

Variants of: B2
Assay: GST pull-down, immunoblot quantification; S2 cells; only GST-HYP and Flag-CNK2–549 co-expressed; anti-Flag blot; parent: 1
Remark: another data set of the same source

| ratio to parent | Variant |
| --- | --- |
| 0.12 | chain 1 I122D, chain 1 L151D |
| 0.76 | chain 1 L151D |
| 0.17 | chain 1 I122D |

Variants of: B2
Assay: GST pull-down, immunoblot quantification; S2 cells; GST-HYP, Flag-CNK2–549 + RRKM co-expressed; anti-Flag (CNK) blot; parent: 1
Remark: another data set of the same source

| ratio to parent | Variant |
| --- | --- |
| 0.1 | chain 1 I122D, chain 1 L151D |
| 0.33 | chain 1 L151D |
| 0.63 | chain 1 I122D |

Variants of: B2
Assay: GST pull-down, immunoblot quantification; S2 cells; GST-HYP + RRKM co-expressed; anti-Flag (CNK) blot; parent: 1
Remark: another data set of the same source

| ratio to parent | Variant |
| --- | --- |
| 1.03 | chain 1 D80R |
| 0.73 | chain 1 D80R, chain 1 K282D |
| 0.31 | chain 1 K282D |

Variants of: B2
Assay: GST pull-down, immunoblot quantification; S2 cells; only Flag-CNK2–549 and GST-HYP co-expressed; anti-Flag blot; parent: 1
Remark: another data set of the same source

| ratio to parent | Variant |
| --- | --- |
| 0.46 | chain 1 D80R |
| 1.03 | chain 1 D80R, chain 1 K282D |
| 0.4 | chain 1 K282D |

Variants of: B2
Assay: GST pull-down, immunoblot quantification; S2 cells; GST-HYP + RRKM (Ha-RASV12, Pyo-RAF, V5-KSR, Myc-MEK) co-expressed; anti-Flag (CNK) blot; parent: 1

| Variant | ratio to parent |
| --- | --- |
| chain 1 D194K | 0.24 |
| chain 1 M196E | 0.34 |

Continued, values first:

| ratio to parent | Variant |
| --- | --- |
| 0.72 | chain 1 Q199A |
| 0.21 | chain 1 V197E |
| 0.86 | chain 1 S193A |

Variants of: B2
Assay: GST pull-down, immunoblot quantification; S2 cells; GST-HYP, V5-KSR, Myc-MEK co-expressed; anti-Flag (CNK) blot; parent: 1
Remark: another data set of the same source

| Variant | ratio to parent |
| --- | --- |
| chain 1 K109E | 0.81 |
| chain 1 K33D | 0.84 |
| chain 1 L267R | 0.85 |
| chain 1 A40F | 0.79 |
| chain 1 H263A | 0.95 |
| chain 1 M196E | 0.65 |

Other lines, results leading:

| ratio to parent | Variant |
| --- | --- |
| 0.84 | chain 1 T135F |
| 0.68 | chain 1 R264E |

Variants of: B2
Assay: GST pull-down, immunoblot quantification; S2 cells; only Flag-CNK2–549 and GST-HYP co-expressed; anti-Flag (CNK) blot; parent: 1
Remark: another data set of the same source

| Variant | ratio to parent |
| --- | --- |
| chain 1 N81W | 0.7 |
| chain 1 N81E | 0.9 |

Continued, values first:

| ratio to parent | Variant |
| --- | --- |
| 0.99 | chain 1 N95E |
| 0.73 | chain 1 R45F |
| 1.27 | chain 1 R98E |
| 0.93 | chain 1 Y75R |
| 1.12 | chain 1 Q83E |

Variants of: B2
Assay: GST pull-down, immunoblot quantification; S2 cells; Flag-CNK2–549, V5-KSR, Myc-MEK, GST-HYP co-expressed; anti-CNK blot; parent: 1

| Variant | ratio to parent |
| --- | --- |
| chain 1 N81W | 0.09 |
| chain 1 N81E | 0.24 |

Next, values leading:

| ratio to parent | Variant |
| --- | --- |
| 0.82 | chain 1 N95E |
| 0.79 | chain 1 R45F |
| 0.77 | chain 1 R98E |
| 0.73 | chain 1 Y75R |
| 0.4 | chain 1 Q83E |
